B1: Qars (protein, UniProt Q8BML9 2-775, looked up)
Glutamine--tRNA ligase: ATPDSLALFTGLGLSENKARETLKNEALSTQLREAATQAHQILGSTIDKATGVLLYDLVSRLRDTRRRSFLVSYIANKKIHTGLQLSAALEYVRSHPQDPIDTKDFEQECGVGVVVTPEQIEEAVESTINKHQLQLLAERYRFNMGLLMGEARAALRWADGKMIKNEVDMQVLHLLGPKMEADLVKKPKVAKARLEETDRKTAKDVVEKGEVAGQTLSLMEQLRGEALKFHKPGENYKTPGYVITPYTMDLLKQHLEITGGQVRTRFPPEPNGILHIGHAKAINFNFGYAKANNGICFLRFDDTNPEKEEAKFFTAIYDMVTWLGYTPYKVTYASDYFDQLYAWAVELIHGGLAYVCHQRVEELKGHNPLPSPWRDRPKEESLLLFEAMRKGKFAEGEATLRMKLVMEDGKMDPVAYRVKYTPHHRTGDKWCIYPTYDYTHCLCDSIEHITHSLCTKEFQARRSSYFWLCNALKVYCPVQWEYGRLNLHYAVVSKRKILQLVAAGAVRDWDDPRLFTLTALRRRGFPPEAINNFCARVGVTVAQTTMEPHLLEACVRDVLNDAAPRAMAVLEPLQVVITNFPAPKPLDIRVPNFPADETKGFHQVPFASTVFIERSDFKEESEPGYKRLASGQPVGLRHTGYVIELQNIVRGSSGCVERLEVTCRRADAGEKPKAFIHWVSQPLVCEIRLYECLFQHKNPEDPVEVPGGFLSDLNPASLQVVEGALVDCSVALAKPFDKFQFERLGYFSVDPDSHQGQIVFNRTVTLKEDPGKI
B2: Fth1 (protein, UniProt P09528 1-182, looked up)
Ferritin heavy chain: MTTASPSQVRQNYHQDAEAAINRQINLELYASYVYLSMSCYFDRDDVALKNFAKYFLHQSHEEREHAEKLMKLQNQRGGRIFLQDIKKPDRDDWESGLNAMECALHLEKSVNQSLLELHKLATDKNDPHLCDFIETYYLSEQVKSIKELGDHVTNLRKMGAPEAGMAEYLFDKHTLGHGDES
B3: Plaa (protein, UniProt P27612 1-794, looked up)
Phospholipase A-2-activating …: MASGASRYRLSCSLPGHELDVRGLVCCLYPPGAFVSVSRDRTTRLWAPDSPNRGFTEMHCMSGHSNFVSCVCIIPSSDIYPHGLIATGGNDHNICIFSLDSPMPLYILKGHKDTVCSLSSGKFGTLLSGSWDTTAKVWLNDKCMMTLQGHTAAVWAVKILPEQGLMLTGSADKTIKLWKAGRCERTFLGHEDCVRGLAILSETEFLSCANDASIRRWQITGECLEVYFGHTNYIYSISVFPNSKDFVTTAEDRSLRIWKHGECAQTIRLPAQSIWCCCVLENGDIVVGASDGIIRVFTESEERTASAEEIKAFERELSQATIDSKTGDLGDINAEQLPGREHLSEPGTREGQTRLIRDGERVEAYQWSVSDGRWIKIGDVVGSSGANQQTSGKVLYEGKEFDYVFSIDVNEGGPSYKLPYNVSDDPWLVAYNFLQKNDLNPMFLDQVAKFIIDNTKGQTLGLGNTSFSDPFTGGGRYVPGTSGPSNTVQTADPFTGAGRYMPGSAGMDTTMTGVDPFTGNSAYRSAASKTVNIYFPKKEALTFDQANPTQILGKLKELNGTAPEEKKLTEDDLVLLEKILSLICNNSSEKPTAQQLQILWKAINWPEDIVFPALDILRLSIKHPNVNENFCNEKGDQFSSHLINLLNPKGKPANQLLALRTFCNCFVSQAGQKLMMSQRESLMSHAIELKSGSNKNIHIALATLTLNYSVCFHKDHNIEGKAQCLSVISTILEVVQDLEATFRLLVALGTLISDDSNAIQLAKSLGVDSQIKKYVSVSEPAKVSECCRLVLHLL
B4: Ssbp1 (protein, UniProt Q9CYR0 17-152, looked up)
Single-stranded DNA-binding …: ESEVASSLVLERSLNRVQLLGRVGQDPVMRQVEGKNPVTIFSLATNEMWRSGDSEVYQMGDVSQKTTWHRISVFRPGLRDVAYQYVKKGARIFVEGKVDYGEYMDKNNVRRQATTIIAGKKLVVHSVSGCSLEGLA
B5: Dars (protein, UniProt Q922B2 1-501, looked up)
Aspartate--tRNA ligase, …: MPSTNASRKGQEKPREIVDAAEDYAKERYGISSMIQSQEKPDRVLVRVKDLTVQKADDVVWVRARVHTSRAKGKQCFLVLRQQQFNVQALVAVGDHASKQMVKFAANINKESIIDVEGVVRKVNQKIGSCTQQDVELHVQKIYVISLAEPRLPLQLDDAIRPEVEGEEDGRATVNQDTRLDNRVIDLRTSTSQAIFRLQSGICHLFRETLINKGFVEIQTPKIISAASEGGANVFTVSYFKNNAYLAQSPQLYKQMCICADFEKVFCIGPVFRAEDSNTHRHLTEFVGLDIEMAFNYHYHEVVEEIADTLVQIFKGLQERFQTEIQTVSKQFPCEPFKFLEPTLRLEYCEALAMLREAGVEMDDEEDLSTPNEKLLGRLVKEKYDTDFYVLDKYPLAVRPFYTMPDPRNPKQSNSYDMFMRGEEILSGAQRIHDPQLLTERALHHGIDLEKIKAYIDSFRFGAPPHAGGGIGLERVTMLFLGLHNVRQTSMFPRDPKRLTP
B6: Hnrnpf (protein, UniProt Q9Z2X1 1-415, looked up)
Heterogeneous nuclear …: MMLGPEGGEGYVVKLRGLPWSCSIEDVQNFLSDCTIHDGVAGVHFIYTREGRQSGEAFVELESEDDVKLALKKDRESMGHRYIEVFKSHRTEMDWVLKHSGPNSADSANDGFVRLRGLPFGCTKEEIVQFFSGLEIVPNGITLPVDPEGKITGEAFVQFASQELAEKALGKHKERIGHRYIEVFKSSQEEVRSYSDPPLKFMSVQRPGPYDRPGTARRYIGIVKQAGLDRMRSGAYSAGYGGYEEYSGLSDGYGFTTDLFGRDLSYCLSGMYDHRYGDSEFTVQSTTGHCVHMRGLPYKATENDIYNFFSPLNPVRVHIEIGPDGRVTGEADVEFATHEEAVAAMSKDRANMQHRYIELFLNSTTGASNGAYSSQVMQGMGVSAAQATYSGLESQSVSGCYGAGYSGQNSMGGYD
B7: Shmt2 (protein, UniProt Q9CZN7 30-504, looked up)
Serine …: KVAQTQAGEAAGGWTGQESLSDSDPEMWELLQREKDRQCRGLELIASENFCSRAALEALGSCLNNKYSEGYPGKRYYGGAEVVDEIELLCQRRALEAFDLDPAQWGVNVQPYSGSPANLAAYTALLQPHDRIMGLDLPDGGHLTHGYMSDVKRISATSIFFESMPYKLNPQTGLIDYDQLALTARLFRPRLIIAGTSAYARLIDYARMREVCDEVRAHLLADMAHISGLVAAKVIPSPFKYADVVTTTTHKTLRGARSGLIFYRKGVRTVDPKTGKEIPYTFEDRINFAVFPSLQGGPHNHAIAAVAVALKQACTPMFREYSLQVLRNAQAMADALLKRGYSLVSGGTDTHLVLVDLRPKGLDGARAERVLELVSITANKNTCPGDRSAITPGGLRLGAPALTSRQFREDDFRRVVDFIDEGVNIGLEVKRKTAKLQDFKSFLLKDPETSQRLANLRQQVEQFARGFPMPGFDER
B8: Lipg (protein, UniProt Q9WVG5 21-500, looked up)
Endothelial lipase: SITTLRPQGSLRDEHHKPTGVPATARPSVAFNIRTSKDPEQEGCNLSLGDSKLLENCGFNMTAKTFFIIHGWTMSGMFESWLHKLVSALQMREKDANVVVVDWLPLAHQLYTDAVNNTRVVGQRVAGMLDWLQEKEEFSLGNVHLIGYSLGAHVAGYAGNFVKGTVGRITGLDPAGPMFEGVDINRRLSPDDADFVDVLHTYTLSFGLSIGIRMPVGHIDIYPNGGDFQPGCGFNDVIGSFAYGTISEMVKCEHERAVHLFVDSLVNQDKPSFAFQCTDSSRFKRGICLSCRKNRCNNIGYNAKKMRKKRNSKMYLKTRAGMPFKVYHYQLKVHMFSYNNSGDTQPTLYITLYGSNADSQNLPLEIVEKIELNATNTFLVYTEEDLGDLLKMRLTWEGVAHSWYNLWNEFRNYLSQPSNPSRELYIRRIRVKSGETQRKVTFCTQDPTKSSISPGQELWFHKCQDGWKMKNKTSPFVNLA
B9: Ephx1 (protein, UniProt Q9D379 1-455, looked up)
Epoxide hydrolase 1: MWLELILASVLGFVIYWFVSRDKEETLPLEDGWWGPGSKPSAKEDESIRPFKVETSDEEIKDLHQRIDRFRASPPLEGSRFHYGFNSSYLKKVVSFWRNEFDWRKQVEILNQYPHFKTKIEGLDIHFIHVKPPQLPSGRTPKPLLMVHGWPGSFYEFYKIIPLLTDPKTHGLSDEHVFEVICPSIPGYGFSEASSKKGLNSVATARIFYKLMSRLGFQKFYIQGGDWGSLICTNIAQMVPNHVKGLHLNMSFISRNIYSLTPLLGQRFGRFLGYTEKDLELLYPFKEKVFYNIMRESGYLHIQATKPDTVGCALNDSPVGLAAYILEKFSTWTKSEYRELEDGGLERKFSLEDLLTNIMIYWTTGTIVSSQRFYKENLGQGVMVHRHEGMKVFVPTGYSAFPSEILHAPEKWVKVKYPKLISYSYMERGGHFAAFEEPKLLAQDIRKFVSLAELQ

Tests used:
[1] = tested on: WT MEF EVs; assay: Quantitative LC-MS/MS proteomics of EVs from ISRIB-treated WT MEF cultures; assay type: cell-based, mouse; set-up: key to ISRIB and DYT Parallel Direction / ISRIB and DYT Parallel Direction, Ctdsp1 / ISRIB and DYT Parallel Direction, Pcdh19 / ISRIB and DYT Parallel Direction, Tspan7 / ISRIB and DYT Parallel Direction, Myo1e / ISRIB and DYT Parallel Direction, Plpp3 / ISRIB and DYT Parallel Direction, Sh3bp4 / ISRIB and DYT Parallel Direction, Dnajc7 / ISRIB and DYT Parallel Direction, Drg1 / ISRIB and DYT Parallel Direction, Maea: YES = protein abundance effect similar to DYT/WT; settings: EV protein abundance; for WT + ISRIB/WT Cohen's d: ISRIB-treated WT vs WT; for ISRIB and DYT Parallel Direction: WT + ISRIB vs WT, direction compared with DYT/WT
[2] = tested on: DYT-TOR1A MEF EVs; assay: Quantitative LC-MS/MS proteomics of EVs from drug-treated DYT-TOR1A MEF cultures (ritonavir, salubrinal); assay type: cell-based, mouse; set-up: key to RTV Corrective Direction / RTV Corrective Direction, Grwd1 / RTV Corrective Direction, Srrm2 / RTV Corrective Direction, Rbm17 / RTV Corrective Direction, Dcaf8 / RTV Corrective Direction, Edil3 / RTV Corrective Direction, Timp3 / RTV Corrective Direction, Heatr3 / RTV Corrective Direction, Brd4 / RTV Corrective Direction, P3h4 / RTV Corrective Direction, Pacsin3 / RTV Corrective Direction, Naa50 / RTV Corrective Direction, Lpar6 / RTV Corrective Direction, Ndrg1 / RTV Corrective Direction, Kntc1 / RTV Corrective Direction, Cdk11b / RTV Corrective Direction, Sumo1 / RTV Corrective Direction, Lsm4 / RTV Corrective Direction, Hmga2 / RTV Corrective Direction, Cstf1 / RTV Corrective Direction, Tes / RTV Corrective Direction, Sbno1 / RTV Corrective Direction, Unc119b / RTV Corrective Direction, Cfdp1 / RTV Corrective Direction, Sec61b: YES = protein abundance effect opposite to DYT/WT; settings: EV protein abundance; for RTV Corrective Direction: DYT + RTV (ritonavir) vs DYT, direction compared with DYT/WT; for DYT + RTV/DYT Cohen's d: ritonavir (RTV)-treated DYT vs DYT

Molecule	WT + ISRIB/WT Cohen's d [1]	ISRIB and DYT Parallel Direction [1]	RTV Corrective Direction [2]	DYT + RTV/DYT Cohen's d [2]
B1	−2.14	YES	YES	7.21
B2	−3.46	YES	YES	0.31
B3	−2.39	YES	YES	8.69
B4	−1.49	YES	YES	3.30
B5	−1.13	YES	YES	9.32
B6	−0.18	YES	YES	8.04
B7	−1.44	YES	YES	8.98
B8	−2.47	YES	YES	2.88
B9	−0.32	YES	YES	1.48

Source: patent publication US20260266848A1, “COMPOSITIONS AND METHODS FOR DIAGNOSING AND TREATING DYSTONIA” (Duke University, priority 2023, published 2026)
